Test results from paper PMC2654577.
Like-named read-outs stand apart in the source and are kept apart here.

How the values were obtained:
Test in all cases: enzyme inhibition kinetics
[1] = molecular target: factor XIa catalytic domain K179A (human)
[2] = molecular target: full-length factor XIa autolysis loop variant fXIa-144-149A (human)
[3] = molecular target: factor XIa catalytic domain K179A (human); remark: listed apart in the source
[4] = molecular target: factor XIa catalytic domain K170A (human) (UniProt P03951)
[5] = molecular target: full-length factor XIa autolysis loop variant fXIa-144-149A (human); remark: listed apart in the source
[6] = molecular target: factor XIa catalytic domain R173A (human) (UniProt P03951)
[7] = molecular target: factor XIa catalytic domain K175A (human)
[8] = molecular target: factor XIa catalytic domain R171A (human) (UniProt P03951)
[9] = molecular target: factor Xa mutants with substitutions for basic residues in the autolysis loop
[10] = molecular target: recombinant wild type factor XIa catalytic domain (human) (UniProt P03951)
[11] = molecular target: wild type recombinant factor XIa, full length (human)
[12] = molecular target: factor XIa catalytic domain K179A (human); remark: listed apart in the source
[13] = molecular target: factor XIa catalytic domain K170A (human) (UniProt P03951); remark: listed apart in the source
wild type factor Xa = wild type factor Xa (UniProt P00742)
[14] = molecular target: full-length factor XIa autolysis loop variant fXIa-144-149A (human); remark: listed apart in the source
[15] = molecular target: factor XIa catalytic domain R173A (human) (UniProt P03951); remark: listed apart in the source
[16] = molecular target: factor XIa catalytic domain K175A (human); remark: listed apart in the source
[17] = molecular target: factor XIa catalytic domain with residues 170, 171 and 173 changed to alanine (human) (UniProt P03951)

- k2 (second-order inhibition rate constant) [1]: 1100 M⁻¹ s⁻¹
- k2 (second-order inhibition rate constant) [2]: 600 M⁻¹ s⁻¹
- k2 (second-order inhibition rate constant) [3]: 8800 M⁻¹ s⁻¹
- k2 (second-order inhibition rate constant) [4]: 10000 M⁻¹ s⁻¹
- k2 (second-order inhibition rate constant) [5]: 19500 M⁻¹ s⁻¹
- k2 (second-order inhibition rate constant) [6]: 9100 M⁻¹ s⁻¹
- k2 (second-order inhibition rate constant) [7]: 7300 M⁻¹ s⁻¹
- k2 (second-order inhibition rate constant) [8]: 261000 M⁻¹ s⁻¹
- fold effect of heparin on inhibition [9]: 4 fold
- k2 (second-order inhibition rate constant) [10]: 750000 M⁻¹ s⁻¹
- k2 (second-order inhibition rate constant) [11]: 536000 M⁻¹ s⁻¹
- k2 (second-order inhibition rate constant) [12]: 778000 M⁻¹ s⁻¹
- k2 (second-order inhibition rate constant) [13]: 734000 M⁻¹ s⁻¹
- fold effect of heparin on inhibition (wild type factor Xa): 35 fold
- k2 (second-order inhibition rate constant) [14]: 20600 M⁻¹ s⁻¹
- k2 (second-order inhibition rate constant) [15]: 667000 M⁻¹ s⁻¹
- k2 (second-order inhibition rate constant) [16]: 730000 M⁻¹ s⁻¹
- k2 (second-order inhibition rate constant) [17]: 430000 M⁻¹ s⁻¹
B1: C1-inhibitor (natural protein)
chain: NPNATSSSSQDPESLQDRGEGKVATTVISKMLFVEPILEVSSLPTTNSTTNSATKITANTTDEPTTQPTTEPTTQPTIQPTQPTTQLPTDSPTQPTTGSFCPGPVTLCSDLESHSTEAVLGDALVDFSLKLYHAFSAMKKVETNMAFSPFSIASLLTQVLLGAGENTKTNLESILSYPKDFTCVHQALKGFTTKGVTSVSQIFHSPDLAIRDTFVNASRTLYSSSPRVLSNNSDANLELINTWVAKNTNNKISRLLDSLPSDTRLVLLNAIYLSAKWKTTFDPKKTRMEPFHFKNSVIKVPMMNSKKYPVAHFIDQTLKAKVGQLQLSHNLSLVILVPQNLKHRLEDMEQALSPSVFKAIMEKLEMSKFQPTLLTLPRIKVTTSQDMLSIMEKLEFFDFSYDLNLCGLTEDPDLQVSAMQHQTVLELTETGVEAAAASAISVARTLLVFEVQQPFLFVLWDQQHKFPVFMGRVYDPRA
